{
  "source": "patent US9290553B2",
  "about": "“Peptides that modulate complex SASPase-FLG2” (L'OREAL, priority 2010, dated 2016)",
  "key": {"[1]": {"biological_target": "T1, SASPase_28 (Homo sapiens, UniProt Q53RT3)", "T1 construct": "made in house", "T1 sequence (Q53RT3 85-343)": "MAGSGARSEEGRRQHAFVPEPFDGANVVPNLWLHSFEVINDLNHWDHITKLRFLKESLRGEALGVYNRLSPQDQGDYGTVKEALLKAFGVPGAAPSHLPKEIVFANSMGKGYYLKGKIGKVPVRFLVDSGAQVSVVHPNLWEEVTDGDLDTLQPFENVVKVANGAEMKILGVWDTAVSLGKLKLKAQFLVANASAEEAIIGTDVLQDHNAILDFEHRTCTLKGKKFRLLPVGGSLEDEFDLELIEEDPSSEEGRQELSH", "experiment": "SASPase proteolytic activity assay with Dabcyl-QIDRIMEK-Edans substrate", "type": "biochemical", "settings": "for ability to increase the catalytic activity of SASPase: same enzymatic assay, FLG2-Hs replaced with the synthesized peptide", "procedure": "A recombinant 28 kDa SASPase (SASPase_28) constituted of the amino acids extending from positions 85 to 343 of the sequence represented by the reference Q53RT3 (Uniprot/Swissprot Ref.) was prepared as described by Bernard et al., (J. Invest. Dermatol., 2005, 125: 278-287).\nSASPase_28 at 0.025 mg/ml is in the presence of a colorimetric substrate, Dabcyl-QIDRIMEK-Edans, at 0.01 mM (Production Jerini Peptide Ref. D17: JPT Peptide Technologies GmbH) in a PBS buffer.\nThe hydrolysis of the colorimetric substrate by the activated SASPase results in the separation of the EDANS fluorochrome and of its deactivator (or quencher) Dabcyl, and in an increase in the EDANS fluorescence.\nThe fluorescent signal is measured at λex 340 nm/λem 490 nm. The fluorescence is read every 10 minutes for 1 h 30 min, at 37° C., with a SPECTRAMAX M5e (Molecular Devices).\nThe previous enzymatic assay was repeated with FLG2-Hs being replaced with each of the peptides thus prepared."}, "[2]": {"biological_target": "T2, filaggrin-2 (FLG2) (Homo sapiens, UniProt Q5D862)", "T2 construct": "expressed in transfected cells; host or cells: double-hybrid system", "T2 sequence (Q5D862 2-213)": "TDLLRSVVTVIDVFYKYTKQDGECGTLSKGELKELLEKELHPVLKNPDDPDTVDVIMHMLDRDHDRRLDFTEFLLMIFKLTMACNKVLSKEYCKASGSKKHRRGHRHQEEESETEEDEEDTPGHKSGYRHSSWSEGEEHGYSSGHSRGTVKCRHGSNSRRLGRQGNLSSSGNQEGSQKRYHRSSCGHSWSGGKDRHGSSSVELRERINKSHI", "experiment": "double-hybrid interaction of SASPase_28 fragments with filaggrin-2", "type": "binding", "settings": "N-terminal fragment of SASPase_28, amino acids 11-86", "procedure": "A first study using the “double-hybrid” technique was carried out using the whole 28 kDa SASPase protein in its wild-type form (SASPase_28, GENBANK Ref. gi16553767) and in its form mutated at the catalytic aspartic acid (SASPase_28D128A), and also the 37 kDa SASPase form (SASPase_37), in its whole form (GENBANK Ref. gi189409121), and a fragment corresponding to the N-terminal end of 84 amino acids of the protein relative to the sequence of SASPase_28 ([…]).\nThe SASPase sequences were fused to a DNA-binding domain, LexA, according to the orientation N-LexA-SASPase-C, so as to keep the C-terminal end of the SASPase free, with the exception of the SASPase_28N84 sequence which is fused to the LexA domain according to the orientation N-SASPase_28N84-LexA-C.\n(§1) The prey sequences were fused to the Ga14 transcription-activating domain.\n(§2) Supplementary experiments were carried out in order to reduce and identify the size of the sequences responsible for this interaction between SASPase_28 and filaggrin-2."}, "[3]": {"biological_target": "T3, SASPase (Homo sapiens, UniProt Q53RT3)", "T3 construct": "expressed in transfected cells; host or cells: double-hybrid system", "T3 sequence (Q53RT3 1-259 isoform Q53RT3-2)": "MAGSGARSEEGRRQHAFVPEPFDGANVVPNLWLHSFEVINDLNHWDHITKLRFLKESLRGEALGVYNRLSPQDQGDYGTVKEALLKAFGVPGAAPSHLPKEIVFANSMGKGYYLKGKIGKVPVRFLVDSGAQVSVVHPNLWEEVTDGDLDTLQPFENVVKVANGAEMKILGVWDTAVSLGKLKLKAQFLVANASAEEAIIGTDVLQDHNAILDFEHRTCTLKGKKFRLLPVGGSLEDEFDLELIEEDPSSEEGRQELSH", "experiment": "double-hybrid interaction of filaggrin-2 fragments with SASPase", "type": "binding", "settings": "N-terminal S100 domain of filaggrin-2, amino acids 2-95", "procedure": "The interaction with a SASPase was found using, as bait, the filaggrin-2 fragment identified as interacting with the SASPase_28 and SASPase_37 sequences, and corresponding to amino acids 2-213 of the Genbank sequence: gi:62122916.\nThe sequence was fused to the DNA-binding domain, LexA, according to the orientation N-LexA-FLG22-213-C.\nas §1, §2"}},
  "data": [
    {"molecule": "SEQ ID NO: 10: peptide of 8 to 20 amino acids synthesized from positions 71 to 90 of FLG2, SEQ ID NO: 9 (FTEFLLMIFKLTMACNKVLS; /mol_type=“protein” /organism=“Homo sapiens”; listed as Homo sapiens)", "values": [
      {"measurement": "ability to increase the catalytic activity of SASPase", "setting": "[1]", "value": "particularly significant ability to increase"}
    ]},
    {"molecule": "SEQ ID NO: 11: peptide of 8 to 20 amino acids synthesized from positions 71 to 90 of FLG2, SEQ ID NO: 9 (EFLLMIFKLTMACNK; /mol_type=“protein” /organism=“Homo sapiens”; listed as Homo sapiens)", "values": [
      {"measurement": "ability to increase the catalytic activity of SASPase", "setting": "[1]", "value": "particularly significant ability to increase"}
    ]},
    {"molecule": "SEQ ID NO: 12: peptide of 8 to 20 amino acids synthesized from positions 71 to 90 of FLG2, SEQ ID NO: 9 (LMIFKLTMACNKVLS; /mol_type=“protein” /organism=“Homo sapiens”; listed as Homo sapiens)", "values": [
      {"measurement": "ability to increase the catalytic activity of SASPase", "setting": "[1]", "value": "particularly significant ability to increase"}
    ]},
    {"molecule": "SEQ ID NO: 13: peptide of 8 to 20 amino acids synthesized from positions 71 to 90 of FLG2, SEQ ID NO: 9 (LMIFKLTMACNKV; /mol_type=“protein” /organism=“Homo sapiens”; listed as Homo sapiens)", "values": [
      {"measurement": "ability to increase the catalytic activity of SASPase", "setting": "[1]", "value": "particularly significant ability to increase"}
    ]},
    {"molecule": "SEQ ID NO: 14: peptide of 8 to 20 amino acids synthesized from positions 71 to 90 of FLG2, SEQ ID NO: 9 (TEFLLMIFKLTMACNK; /mol_type=“protein” /organism=“Homo sapiens”; listed as Homo sapiens)", "values": [
      {"measurement": "ability to increase the catalytic activity of SASPase", "setting": "[1]", "value": "particularly significant ability to increase"}
    ]},
    {"molecule": "SEQ ID NO: 15: peptide of 8 to 20 amino acids synthesized from positions 71 to 90 of FLG2, SEQ ID NO: 9 (TEFLLMIF; /mol_type=“protein” /organism=“Homo sapiens”; listed as Homo sapiens)", "values": [
      {"measurement": "ability to increase the catalytic activity of SASPase", "setting": "[1]", "value": "particularly significant ability to increase"}
    ]},
    {"molecule": "SEQ ID NO: 16: amino acid sequence extending from positions 97 to 173 of the Q53RT3 sequence of SASPase (protein, listed as Homo sapiens, /mol_type=“protein” /organism=“Homo sapiens”) RQHAFVPEPFDGANVVPNLWLHSFEVINDLNHWDHITKLRFLKESLRGEALGVYNRLSPQDQGDYGTVKEALLKAFG", "values": [
      {"measurement": "interaction with FLG2", "setting": "[2]", "value": "sufficient for the interaction with FLG2"}
    ]},
    {"molecule": "FLG2-Hs: recombinant filaggrin-2, positions 2 to 213 of Q5D862, fused to a Thioredoxin-His-S.Tag affinity label (protein, left off: large carriers) TDLLRSVVTVIDVFYKYTKQDGECGTLSKGELKELLEKELHPVLKNPDDPDTVDVIMHMLDRDHDRRLDFTEFLLMIFKLTMACNKVLSKEYCKASGSKKHRRGHRHQEEESETEEDEEDTPGHKSGYRHSSWSEGEEHGYSSGHSRGTVKCRHGSNSRRLGRQGNLSSSGNQEGSQKRYHRSSCGHSWSGGKDRHGSSSVELRERINKSHI", "values": [
      {"measurement": "enzymatic activity of SASPase", "setting": "[1]; SASPase_28 0.025 mg/ml, substrate 0.01 mM, PBS, 37° C., FLG2-Hs at 0.01 to 10 times the SASPase concentration", "value": "significantly increased"}
    ]},
    {"molecule": "SEQ ID NO: 9: amino acid sequence extending from positions 2 to 95 of filaggrin-2 Q5D862 (N-terminal S100 domain) (protein, listed as Homo sapiens, /mol_type=“protein” /organism=“Homo sapiens”) TDLLRSVVTVIDVFYKYTKQDGECGTLSKGELKELLEKELHPVLKNPDDPDTVDVIMHMLDRDHDRRLDFTEFLLMIFKLTMACNKVLSKEYCKA", "values": [
      {"measurement": "interaction with SASPase", "setting": "[3]", "value": "involved in the interaction with SASPase"}
    ]}
  ]
}
